We go through three substances from paper PMC8467750.

For experiment [1], the target named is histamine H2 receptor fused C-terminally to the small fragment of NanoLuc (H2R–NlucC) (human) (UniProt P25021). Briefly: split reporter (BiFC, NanoBiT); split-NanoLuc mini-G protein recruitment assay in live HEK293T cells transiently co-expressing receptor–NlucC and NlucN–mini-G; recruitment upon histamine (serial dilutions), 37 °C, L-15 medium with 10 mM HEPES, furimazine; AUC of 45 min traces normalised to 100 µM histamine in the canonical system (H2R–mGs or H4R–mGsi, 100%) and L-15 (0%); N = 3, each in triplicate.
Sequence of UniProt P25021 (P25021 whole entry, the tested form may be a part): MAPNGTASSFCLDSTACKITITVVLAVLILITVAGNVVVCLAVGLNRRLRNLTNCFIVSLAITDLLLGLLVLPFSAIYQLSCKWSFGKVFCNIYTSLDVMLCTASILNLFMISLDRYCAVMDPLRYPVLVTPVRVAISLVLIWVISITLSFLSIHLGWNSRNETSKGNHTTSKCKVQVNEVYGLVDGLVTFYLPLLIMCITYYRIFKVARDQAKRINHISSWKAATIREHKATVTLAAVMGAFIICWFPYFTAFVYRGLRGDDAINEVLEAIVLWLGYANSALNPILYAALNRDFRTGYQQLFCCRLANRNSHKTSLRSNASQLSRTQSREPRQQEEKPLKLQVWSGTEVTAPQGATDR

Experiment [2] concerns the target histamine H4 receptor fused C-terminally to the small fragment of NanoLuc (H4R–NlucC) (human) (UniProt Q9H3N8). The experiment is described as above.
Sequence of UniProt Q9H3N8 (Q9H3N8 whole entry, the tested form may be a part): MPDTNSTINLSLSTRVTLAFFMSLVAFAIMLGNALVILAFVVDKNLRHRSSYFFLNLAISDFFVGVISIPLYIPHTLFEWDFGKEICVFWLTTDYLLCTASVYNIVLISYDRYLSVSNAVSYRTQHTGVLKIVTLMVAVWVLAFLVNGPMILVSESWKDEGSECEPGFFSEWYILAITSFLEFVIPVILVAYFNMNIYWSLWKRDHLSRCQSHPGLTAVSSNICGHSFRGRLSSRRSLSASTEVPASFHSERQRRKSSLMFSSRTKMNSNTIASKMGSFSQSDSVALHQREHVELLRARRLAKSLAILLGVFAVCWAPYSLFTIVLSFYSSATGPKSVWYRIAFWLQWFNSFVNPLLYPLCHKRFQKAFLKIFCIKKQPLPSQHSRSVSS

With “mini-G protein mGs fused N-terminally to the large fragment of NanoLuc (NlucN–mGs)”, the Emax of histamine (mini-G recruitment) in experiment [1] is 100%; in experiment [2], -13.5%. In experiment [1], this substance yielded a pEC50 of histamine (mini-G recruitment) of 6.86.
With “mini-G protein mGsi fused N-terminally to the large fragment of NanoLuc (NlucN–mGsi)”, in experiment [1], the Emax of histamine (mini-G recruitment) was determined as 26.8% and the pEC50 of histamine (mini-G recruitment) came to 5.3. In experiment [2], the Emax of histamine (mini-G recruitment) was determined as 100% and the pEC50 of histamine (mini-G recruitment) is 6.6.
Regarding “mini-G protein mGsq fused N-terminally to the large fragment of NanoLuc (NlucN–mGsq)”, in experiment [1], the Emax of histamine (mini-G recruitment) was 29.6% and the pEC50 of histamine (mini-G recruitment) was determined as 5.48. In experiment [2], the Emax of histamine (mini-G recruitment) was 13.8%.
